This test deals with mCardinal. In words: SEC + AUC.

By stoichiometry N is commonly meant the number of molecules, sites or subunits per partner or assembly.

On to mCardinal, for which the stoichiometry N came to 2.

(Values after doi:10.1101/162842.)
